According to patent publication US20180057604A1 (Genentech, published 2018):
Read-outs that look alike come from different tables or passages of the source.

Assays:
[1] = biological target: T1, BACE1 in primary mouse cortical neurons (mouse, UniProt P56818 46-501); assay: cell-based or functional assay
murine BACE1 ECD [2] = biological target: T2, murine BACE1 ECD; assay: Octet, pH 5.0
T2 construct: analyte of the Octet assay (200 nM) and enzyme of the first short substrate assay

human BACE1 ECD [3] = biological target: T3, human BACE1 ECD; assay: Octet, pH 5.0
T3 construct: analyte of the Octet assay (200 nM) and enzyme of the first short substrate assay; also called human BACE1 extracellular domain

[4] = biological target: BACE1 (HTRF long substrate and FRET short substrate assays of Example 9D); assay: cell-based or functional assay
murine BACE1 ECD [5] = biological target: T2, murine BACE1 ECD; assay: Octet, pH 7.5
human BACE1 ECD [6] = biological target: T3, human BACE1 ECD; assay: Octet, pH 7.5
[7] = biological target: T4, human BACE1 (R&D Systems) (human, UniProt P56817); assay: SPR (Biacore)
T4 construct: recombinant, commercial (R&D Systems)

murine BACE1 ECD [8] = biological target: T2, murine BACE1 ECD; assay: cell-based or functional assay
human BACE1 ECD [9] = biological target: T3, human BACE1 ECD; assay: cell-based or functional assay
murine BACE1 ECD [10] = biological target: T2, murine BACE1 ECD; assay: Octet, pH 5.0; remark: listed apart in the source
human BACE1 ECD [11] = biological target: T3, human BACE1 ECD; assay: Octet, pH 5.0; remark: listed apart in the source
murine BACE1 ECD [12] = biological target: T2, murine BACE1 ECD; assay: Octet, pH 7.5; remark: listed apart in the source
human BACE1 ECD [13] = biological target: T3, human BACE1 ECD; assay: Octet, pH 7.5; remark: listed apart in the source
[14] = biological target: T1, BACE1 in primary mouse cortical neurons; assay: cell-based or functional assay; remark: listed apart in the source

T4 sequence (P56817 22-457 limits assumed): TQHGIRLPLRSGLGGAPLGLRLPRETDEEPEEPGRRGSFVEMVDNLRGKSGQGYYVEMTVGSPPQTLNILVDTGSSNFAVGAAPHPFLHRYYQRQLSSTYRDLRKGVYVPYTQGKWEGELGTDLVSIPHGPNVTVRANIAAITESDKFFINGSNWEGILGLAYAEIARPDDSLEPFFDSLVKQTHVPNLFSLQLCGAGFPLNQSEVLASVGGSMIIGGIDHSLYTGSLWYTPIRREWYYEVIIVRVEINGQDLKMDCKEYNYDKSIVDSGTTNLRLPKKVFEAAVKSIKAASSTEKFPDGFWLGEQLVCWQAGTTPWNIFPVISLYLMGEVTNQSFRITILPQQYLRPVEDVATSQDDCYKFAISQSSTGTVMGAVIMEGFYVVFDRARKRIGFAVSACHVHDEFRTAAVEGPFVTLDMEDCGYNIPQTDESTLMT
T3 sequence (single chain, as listed by the source limits assumed): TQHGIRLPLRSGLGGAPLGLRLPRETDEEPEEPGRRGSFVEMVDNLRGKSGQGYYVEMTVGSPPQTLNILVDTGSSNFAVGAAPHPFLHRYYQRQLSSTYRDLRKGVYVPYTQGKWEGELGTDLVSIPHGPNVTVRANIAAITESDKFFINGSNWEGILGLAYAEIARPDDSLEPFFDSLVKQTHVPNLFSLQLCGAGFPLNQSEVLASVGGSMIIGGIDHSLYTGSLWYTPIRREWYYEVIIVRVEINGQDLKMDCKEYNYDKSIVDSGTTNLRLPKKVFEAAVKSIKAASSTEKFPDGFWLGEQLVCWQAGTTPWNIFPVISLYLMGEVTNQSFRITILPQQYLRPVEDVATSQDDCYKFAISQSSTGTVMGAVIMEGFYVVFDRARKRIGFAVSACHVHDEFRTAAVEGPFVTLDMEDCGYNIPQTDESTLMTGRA
T2 sequence (single chain, as listed by the source limits assumed): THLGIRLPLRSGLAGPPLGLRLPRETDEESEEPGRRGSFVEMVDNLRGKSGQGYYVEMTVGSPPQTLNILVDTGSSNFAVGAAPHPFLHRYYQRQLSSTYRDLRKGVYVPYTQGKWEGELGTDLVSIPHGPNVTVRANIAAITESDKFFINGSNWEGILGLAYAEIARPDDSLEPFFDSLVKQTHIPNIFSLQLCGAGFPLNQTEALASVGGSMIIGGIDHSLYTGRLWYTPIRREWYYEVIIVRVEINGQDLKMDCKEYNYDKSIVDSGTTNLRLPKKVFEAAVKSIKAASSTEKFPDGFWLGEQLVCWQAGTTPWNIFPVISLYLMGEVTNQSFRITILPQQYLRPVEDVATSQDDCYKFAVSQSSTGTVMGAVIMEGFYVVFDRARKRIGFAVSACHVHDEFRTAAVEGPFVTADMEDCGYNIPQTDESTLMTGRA
T1 sequence (P56818 46-501): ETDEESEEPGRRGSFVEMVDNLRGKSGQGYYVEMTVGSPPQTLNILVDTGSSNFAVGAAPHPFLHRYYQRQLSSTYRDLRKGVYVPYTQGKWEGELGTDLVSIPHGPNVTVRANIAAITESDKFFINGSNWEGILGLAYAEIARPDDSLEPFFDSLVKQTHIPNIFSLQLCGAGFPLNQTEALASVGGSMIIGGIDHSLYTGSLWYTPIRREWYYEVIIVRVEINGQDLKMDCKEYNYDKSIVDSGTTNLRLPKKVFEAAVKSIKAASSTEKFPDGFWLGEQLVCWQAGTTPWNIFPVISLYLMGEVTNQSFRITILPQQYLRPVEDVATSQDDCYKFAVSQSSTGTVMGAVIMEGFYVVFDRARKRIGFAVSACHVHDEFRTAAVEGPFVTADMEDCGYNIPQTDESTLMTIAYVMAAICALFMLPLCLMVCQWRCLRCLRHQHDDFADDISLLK

Binder	IC50, Abeta x-40 in mouse cortical neurons [1] [nM]	maximal % inhibition of Abeta x-40 [1] [%]	Kd (murine BACE1 ECD [2]) [nM]	Kd (human BACE1 ECD [3]) [nM]	EC50, FRET short substrate [4] [nM]	EC50, HTRF long substrate [4] [nM]	Kd (murine BACE1 ECD [5]) [nM]	Kd (human BACE1 ECD [6]) [nM]	Kd [7] [nM]	% inhibition of BACE1 activity, short FRET substrate (murine BACE1 ECD [8]) [%]	% inhibition of BACE1 activity, short FRET substrate (human BACE1 ECD [9]) [%]	Kd (murine BACE1 ECD [10]) [nM]	Kd (human BACE1 ECD [11]) [nM]	Kd (murine BACE1 ECD [12]) [nM]	Kd (human BACE1 ECD [13]) [nM]	IC50, Abeta x-40 in mouse cortical neurons [14] [nM]	maximal % inhibition of Abeta x-40 [14] [%]
5897 (antibody, V domains shown, anti-BACE1 IgG) VH: QLQLQESGPGLVKPSETLSLTCTVSGGSISWSSYYWSWIRQPPGKGLEWIGSIYKSGRTYYNPSLKSRVTISVDTSKNQFSLKLSSVTAADTAVYYCARVGHGISYFDLWGRGTLVTVSS VL: EIVLTQSPATLSLSPGERATLSCRASQSVSSYLAWYQQKPGQAPRLLIYDASNRATGIPARFSGSGSGTDFTLTISSLEPEDFAVYYCQQSLTWPPRTFGGGTKVEIK	0.3	62	0.82	0.82	0.528	1.39	1.1	0.95	2.07	-3	1						
6308 (antibody, V domains shown, anti-BACE1 IgG) VH: QLQLQESGPGLVKPSETLSLTCTVSGGSISWSSYYWSWIRQPPGKGLEWIGSIYRSGRTYYNPSLKSRVTISVDTSKNQFSLKLSSVTAADTAVYYCARVGHGINYFDLWGRGTLVTVSS VL: EIVLTQSPATLSLSPGERATLSCRASQSVSSYLAWYQQKPGQAPRLLIYDASKRATGIPARFSGSGSGTDFTLTISSLEPEDFAVYYCQQSLVWPPRTFGGGTKVEIK												< 0.17	< 0.14	< 0.15	< 0.14	0.68	60
6311 (antibody, V domains shown, anti-BACE1 IgG) VH: QLQLQESGPGLVKPSETLSLTCTVSGGSISWSSYYWSWIRQPPGKGLEWIGSIYRSGRTYYNPSLKSRVTISVDTSKNQFSLKLSSVTAADTAVYYCARVGHGINYFDLWGRGTLVTVSS VL: EIVLTQSPATLSLSPGERATLSCRASQSVSSYLAWYQQKPGQAPRLLIYDASNRATGIPARFSGSGSGTDFTLTISSLEPEDFAVYYCQQSLTWPPRTFGGGTKVEIK												0.21	0.2	0.24	0.25	0.15	63
6307 (antibody, V domains shown, anti-BACE1 IgG) VH: QLQLQESGPGLVKPSETLSLTCTVSGGSISWSSYYWSWIRQPPGKGLEWIGSIYRSGRTYYNPSLKGRVTISVDTSKNQFSLKLSSVTAADTAVYYCARVGHGINYFDLWGRGTLVTVSS VL: EIVLTQSPATLSLSPGERATLSCRASQSVSSYLAWYQQKPGQAPRLLIYDASNRATGIPARFSGSGSGTDFTLTISSLEPEDFAVYYCQQSIVWPPRTFGGGTKVEIK												< 0.17	< 0.13	< 0.15	< 0.14	0.45	68
6309 (antibody, V domains shown, anti-BACE1 IgG) VH: QLQLQESGPGLVKPSETLSLTCTVSGGSISWSSYYWSWIRQPPGKGLEWIGSIYRSGRTYYNPSLKSRVTISVDTSKNQFSLKLSSVTAADTAVYYCARVGHGINYFDLWGRGTLVTVSS VL: EIVLTQSPATLSLSPGERATLSCRASQSVSSYLAWYQQKPGQAPRLLIYDASNRATGIPARFSGSGSGTDFTLTISSLEPEDFAVYYCQQSITWPPRTFGGGTKVEIK												0.37	0.35	0.32	0.34	0.3	60
5888 (antibody, V domains shown, anti-BACE1 IgG) VH: QVQLVQSGAEVKKPGSSVKVSCKASGGTFWKYAISWVRQAPGQGLEWMGNIIPGFGTANYAQKFRGRVTITADESTSTAYMELSSLRSEDTAVYYCARSGGTKYGMLDVWGQGTMVTVSS VL: EIVMTQSPATLSVSPGERATLSCRASQSVSSNLAWYQQKPGQAPRLLIYGASTRATGIPARFSGSGSGTEFTLTISSLQSEDFAVYYCQQLILWPPRTFGGGTKVEIK	1.79	82	2	1.8	0.602	2.5	1.4	0.86	4.25	-183	-86						
5892 (antibody, V domains shown, anti-BACE1 IgG) VH: QVQLVQSGAEVKKPGSSVKVSCKASGGTFSSYAISWVRQAPGQGLEWMGNIIPIFGTATYAQKFQGRVTITADESTSTAYMELSSLRSEDTAVYYCARSGGTKYGMLDVWGQGTMVTVSS VL: EIVMTQSPATLSVSPGERATLSCRASQSVGSNLAWYQQKPGQAPRLLIYGASTRATGIPARFSGSGSGTEFTLTISSLQSEDFAVYYCQQLYTWPPRTFGGGTKVEIK	9.52	73	1.1	0.39	16.4	1.19	1.3	0.88	2.97	64	64						
6305 (antibody, V domains shown, anti-BACE1 IgG) VH: QVQLVQSGAEVKKPGSSVKVSCKASGGTLSGYAISWVRQAPGQGLEWMGNIIPGFGTANYAQKSQGRVTITADESTSTAYMELSSLRSEDTAVYYCARSGGTRYGMLDVWGQGTMVTVSS VL: EIVLTQSPATLSVSPGERATLSCRASQSVGSNLAWYQQKPGQAPRLLIYGASTRATGIPARFSGSGSGTEFTLTISSLQSEDFAVYYCQQSFVWPPRTFGGGTKVEIK												1.6	0.96	0.56	0.53	9.69	67
5890 (antibody, V domains shown, anti-BACE1 IgG) VH: QVQLVQSGAEVKKPGSSVKVSCKASGGTFSSYAISWVRQAPGQGLEWMGNIIPGFGTANYAQKFQGRVTITADESTSTAYMELSSLRSEDTAVYYCARSGGTKYGMLDVWGQGTMVTVSS VL: EIVMTQSPATLSVSPGERATLSCRASQSVGSNLAWYQQKPGQAPRLLIYGASTRATGIPARFSGSGSGTEFTLTISSLQSEDFAVYYCQQLYTWPPRTFGGGTKVEIK	8.45	77	0.79	0.64	32.4	4.06	1	0.55	3.22	69	66						
5893 (antibody, V domains shown, anti-BACE1 IgG) VH: QVQLVQSGAEVKKPGSSVKVSCKASGGTFRGYAISWVRQAPGQGLEWMGNIIPGFGTANYAQKFQGRVTITADESTSTAYMELSSLRSEDTAVYYCARSGGTKYGMLDVWGQGTMVTVSS VL: EIVMTQSPATLSVSPGERATLSCRASQSVGSNLAWYQQKPGQAPRLLIYGASTRATGIPARFSGSGSGTEFTLTISSLQSEDFAVYYCQQLYTWPPRTFGGGTKVEIK	9.46	73	0.73	0.38	8.84	3.59	0.98	0.33	2.76	69	72						
5891 (antibody, V domains shown, anti-BACE1 IgG) VH: QVQLVQSGAEVKKPGSSVKVSCKASGGTFSSYAISWVRQAPGQGLEWMGNIIPIFGPANYAQKFQGRVTITADESTSTAYMELSSLRSEDTAVYYCARSGGTKYGMLDVWGQGTMVTVSS VL: EIVMTQSPATLSVSPGERATLSCRASQSVGSNLAWYQQKPGQAPRLLIYGASTRATGIPARFSGSGSGTEFTLTISSLQSEDFAVYYCQQLYTWPPRTFGGGTKVEIK	18	78	1.1	0.96	12.4	3.03	1.4	0.65	3.29	70	71						
